This passage reports Monocyte activation (THP1-Xblue, OD655) and moDC activation (IL-12p70, pg/mL) results from patent US20210277137A1.

The target of the assay is human CD40 on cells (human) (UniProt P25942). In words: cell-based or functional assay.
Sequence of human CD40 on cells (human) (P25942 21-277 limits assumed): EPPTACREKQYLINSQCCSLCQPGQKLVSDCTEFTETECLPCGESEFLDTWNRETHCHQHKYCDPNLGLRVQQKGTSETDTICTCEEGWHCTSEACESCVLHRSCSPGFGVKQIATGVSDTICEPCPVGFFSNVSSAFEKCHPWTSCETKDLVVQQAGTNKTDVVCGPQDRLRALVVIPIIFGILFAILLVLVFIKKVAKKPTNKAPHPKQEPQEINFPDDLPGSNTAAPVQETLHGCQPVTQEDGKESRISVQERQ

As to literature CD40 antibody G28-5, the Monocyte activation (THP1-Xblue, OD655) was 0.12 OD655 and the moDC activation (IL-12p70, pg/mL) worked out at 139 pg/mL.
